Measurements taken from patent US20220325265A1, “GLUCOCEREBROSIDASE MUTANTS” (Hoffmann-la Roche Inc., priority 2019, published 2022).
Where a chain is given by its changes, count along the chain named. In names and notes the source's numbering stands.

How the values were obtained:
[1] = Thermal shift assay via nanoDSF measurement (unfolding temperature); type: physicochemical; details: Prometheus NT.Plex, 3° C./min, 0.06-0.5 mg/ml
Method: The thermal shift assay was performed via nanoDSF (differential scanning fluorimetry) measurements using Prometheus NT.Plex nanoDSF (NanoTemper Technologies). The measurement was initialized using the software PR.ThermoControl. Prometheus can precisely characterize samples by measuring the thermal unfolding, chemical denaturation and aggregation within one single run (NanoTemper Technologies, 2019). By gradually heating the sample until reaching 95° C., the protein unfolds. Thereby, the chemical environment of tryptophan residues changes (change in intrinsic tryptophan fluorescence of protein due to more aqueous environment), causing a red-shift in fluorescence (tryptophan fluorescence emission shift). By plotting the fluorescence ratio 350/330 nm against the temperature, the melting temperature Tm can be determined. Calculating the first derivative of raw data gives a peak curve with its maximum indicating the unfolding temperature Tm.
For the sample preparation, a concentration of 0.5 mg/ml was adjusted for the hGCase mutants. For variant I5N and R495HS2, protein concentrations of 0.075 mg/ml (I5N) and 0.06 mg/ml (R495HS2) were applied due to low protein yields. 15 μl total sample volume was uptaken in each capillary of the capillary rack (Prometheus NT.Plex Capillary Chips, NanoTemper) and placed in the device. The excitation power was adjusted to 20-80%, depending on the applied protein concentration. The gradually heating was set to 3° C./min until reaching 95° C. (20° C. was set as starting temperature). The evaluation and calculation of the first derivative was done using the NanoTemper PR.ThermoControl software, the final evaluation and graphing was done using the PR.StabilityAnalysis software.
On the one hand, a successively increasing temperature gradient was applied to measure melting temperatures of protein molecules via nanoDSF (differential scanning fluorimetry) measurement using Prometheus NT.Plex (NanoTemper Technologies, 2019). The sample is gradually heated by increasing the temperature until reaching 95° C. Thereby, the protein unfolds and tryptophan residues experience a change in chemical environment (exposure to a more aqueous environment), which changes the intrinsic tryptophan fluorescence of the protein, causing a red shift in the fluorescent spectrum (350/330 nm=tryptophan fluorescence emission shift) (Schubert, 2015). In FIG. 1, typical melting curves of such an unfolding experiment are shown.
In the upper section of the graphs (FIGS. 1 (A) and (B)), the raw data (progression curves) measured with nanoDSF is plotted, indicating the shift in the fluorescence ratio 350/330 nm during the course of the measurement with increasing temperature. The calculation of the first derivative, giving peak curves (lower section of graphs in (A) and (B)), was done according to default settings of the Software PR.StabilityAnalysis (table 2). Peak maxima (thermal unfolding transition midpoint) indicate the unfolding temperature Tm, where half of the proteins are unfold (Schubert, 2015).

hGCase [2] = experiment: Inhibition of hGCase using isofagomine (IFG), IC50 determination; type: biochemical, human; details: reversible inhibitor isofagomine on the named hGCase variant; 25 nM protein, 10 min pre-incubation at RT, 20 μM res-β-glc
Method: IFG is a competitive, reversible inhibitor of hGCase, interacting with the active pocket of the enzyme (Powe et al., 2006).
To calculate the IC50, a concentration range of 0.002-100 μM IFG was tested. IFG was prepared with a stock concentration of 1 mM in DMSO. The final enzyme concentration was 25 nM. After adding the inhibitor to the enzyme, the solution was pre-incubated for 10 min at RT before adding the substrate (20 μM) for the activity measurement.
The evaluation and IC50 determination were done using GraphPad Prism7. hGCase activity with no inhibitor added was set to 100% relative enzyme activity. In case of evaluating the raw data via GraphPadPrism7, the applied inhibitor concentrations were first transformed to log 10×-values plottet on the x-axis. Further, the raw data measured with the activity assay in RFU was normalized to the highest activity value within one data set (equals 100%). 100% signal was defined as 10-12 μM IFG (=no inhibitor added). Data points were fitted and IC50 values were determined using log(inhibitor) vs. response-variable slope (four parameters) (GraphPadPrism7) following equation 9: […]
(§1) To determine whether the active binding site of an enzyme is compromised or altered, IC50 values were calculated for active site inhibitor and compared. In this work, the natural occurring GCase inhibitor isofagomine (IFG) and conditurol-β-epoxide (CBE) were used. IFG is known as a reversible inhibitor, interacting with the active site of the GCase enzyme, whereas CBE is an irreversible inhibitor of GCase (Powe et al., 2006). The IC50 of an enzyme is defined as the concentration of an inhibitor, where the response, in this case the enzyme activity, is reduced by half (Kalliokoski et al., 2013). Both assays were conducted as described in section 2.5.6. The inhibitor profiles of M53T/P55T using IFG and CBE as well as the IC50 profiles of all residual mutants combined are shown in FIG. 4.
(§2) The raw data was plotted by transforming the applied IFG/CBE concentration to a logarithmic scale (x-axis, FIG. 4) and by normalizing the activity signal with highest signal of each data set to 100% (defined with apparent inhibitor concentration of 10-12 μM, equal to no inhibitor). IC50 values were calculated using GraphPad Prism7 following equation 9.

hGCase [3] = experiment: Inhibition of hGCase using conditurol-β-epoxide (CBE), IC50 determination; type: biochemical, human; details: irreversible inhibitor conditurol-β-epoxide on the named hGCase variant; 25 nM protein, 10 min pre-incubation, 20 μM res-β-glc
Method: CBE is an irreversible inhibitor of glucocerebrosidases which covalently binds to the active site of the enzyme (Liou et al., 2006).
A stock solution of 100 mM CBE in H2Oultrapure was prepared. For IC50 determination, CBE concentrations ranging from 0.04-2500 μM were tested. Again, the final enzyme concentration was 25 nM. After adding the inhibitor, the enzyme was pre-incubated for 10 min before initializing the activity measurement by adding the substrate (20 μM).
IC50 evaluations were done in the same manner as described for IFG (see section above). The IC50 calculations were done using GraphPad Prism7 following equation 9.
as §1, §2

B1: F31Y: recombinant human β-glucocerebrosidase variant R495H/F31Y, S2 cells; Seq. Id. No. 5 (protein, listed as Homo sapiens)
chain: ARPCIPKSFGYSSVVCVCNATYCDSFDPPTYPALGTFSRYESTRSGRRMELSMGPIQANHTGTGLLLTLQPEQKFQKVKGFGGAMTDAAALNILALSPPAQNLLLKSYFSEEGIGYNIIRVPMASCDFSIRTYTYADTPDDFQLHNFSLPEEDTKLKIPLIHRALQLAQRPVSLLASPWTSPTWLKTNGAVNGKGSLKGQPGDIYHQTWARYFVKFLDAYAEHKLQFWAVTAENEPSAGLLSGYPFQCLGFTPEHQRDFIARDLGPTLANSTHHNVRLLMLDDQRLLLPHWAKVVLTDPEAAKYVHGIAVHWYLDFLAPAKATLGETHRLFPNTMLFASEACVGSKFWEQSVRLGSWDRGMQYSHSIITNLLYHVVGWTDWNLALNPEGGPNWVRNFVDSPIIVDITKDTFYKQPMFYHLGHFSKFIPEGSQRVGLVASQKNDLDAVALMHPDGSAVVVVLNRSSKDVPLTIKDPAVGFLETISPGYSIHTYLWHRQ
notes: recombinant human β-glucocerebrosidase variant R495H/F31Y, S2 cells; Id; No. 5
unfolding temperature Tm [1]: 55.1 ± 0.1 °C
IC50 (hGCase [2]): 0.028 ± 0.003 µM
IC50 (hGCase [3]): 60 ± 3 µM

B2: L34Q: recombinant human β-glucocerebrosidase variant R495H/L34Q, S2 cells; Seq. Id. No. 6 (protein, listed as Homo sapiens)
chain: B1 chain with Y31F, L34Q
notes: recombinant human β-glucocerebrosidase variant R495H/L34Q, S2 cells; Id; No. 6
unfolding temperature Tm [1]: 55.2 ± 0.0 °C
IC50 (hGCase [2]): 0.022 ± 0.004 µM
IC50 (hGCase [3]): 106 µM

B3: imiglucerase (protein, UniProt P04062 40-536, looked up, variant R495H)
Lysosomal acid …: B1 chain with Y31F
modifications: imiglucerase; CHO-produced
notes: Commercially available Cerezyme (imiglucerase, Genzyme), hGCase R495H produced in CHO cells
unfolding temperature Tm [1]: 55.2 ± 0.0 °C
IC50 (hGCase [2]): 0.027 ± 0.006 µM
IC50 (hGCase [3]): 60 ± 3 µM
